According to the supplement of paper PMC12042874:
± gives the uncertainty stated by the source.

Assay: amyloid nucleation score (Sup35N fusion, yeast selection) (log enrichment); library NNK1; higher = more nucleation; inactive = no reads after selection
How it was run: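 The nucleation score is the DiMSum log enrichment of output over input reads, centred on the mode score of non-aggregating sequences. Only sequences with 100 or more input reads were scored, using Illumina sequencing of input and output plasmid inserts. Psi-negative yeast expressing Sup35N fused to peptides of 20 random codons were induced 24 hours with 100 μM copper sulfate and grown 7 days at 30°C on medium lacking adenine and uracil.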

Row | Substance | amyloid nucleation score
1 | INNSDSCVMLMMNRVFCHGG | 6.085 ± 0.048
2 | DYRADFNNFVFEERSSYISV | -0.236 ± 0.49
3 | DCDGVLSLCIMVHEIYRKVG | inactive
4 | YFCAMGNHVLVS | -0.389 ± 0.49
5 | MLPLCMSAIRRVKLRSPSEY | 0.151 ± 0.52
6 | AYICYLILFQSQRVW | -0.827 ± 1.7
7 | LKAHPSVTSCPVRSLI | -0.281 ± 0.39
8 | WFASYCISFN | 2.27 ± 0.21
9 | RMEQSCWMTSECRRWKGVWL | 0.827 ± 0.44
10 | IGTGCSDILRIWRECVNLRG | 1.5 ± 0.56
11 | GYIGICGNKYYFPVDRYRAC | 1.28 ± 0.57
12 | VRVMILHLSDILYYLWYGTI | 5.22 ± 0.078
13 | PFCGTFVCGVGLWIRVNCNR | 0.728 ± 0.74
14 | SNSSVSW | 0.717 ± 0.57
15 | PLLGASSRYDHAMLCGNRTF | 0.127 ± 0.33
16 | SNFLHCIVIILWLCFNL | 0.53 ± 0.71
17 | VFCSQGMADTLR | 0.409 ± 0.84
18 | HCCSYLLKR | -0.174 ± 0.61
19 | SAAYQALLTNSYFSLFDVSW | 0.823 ± 0.21
20 | LSMNICSLNSSRYKPP | 2.79 ± 0.098
21 | LYLVILVELMVYSKWCIKSP | 0.414 ± 0.36
22 | GSVSVSQQS | -1.4 ± 2.4

Row | Substance | amyloid nucleation score
23 | LHAGRDSAASGPRISIWKPM | 0.077 ± 0.38
24 | RAAKF | -1.15 ± 0.58
25 | LHVISGFYKCRTKRL | 0.862 ± 0.32
26 | TSGFLPLKTKMF | 0.252 ± 0.8
27 | NTQRTLIFSPMFVSRRLNLA | 2.64 ± 0.16
28 | AYFYNEKNCYSHGKYVPYSF | -0.797 ± 1.7
29 | SSFRVGTIVTNSAWRWSPCW | 5.4 ± 0.062
30 | APRHDCMSSDLQVVKMDFLL | 0.799 ± 0.41
31 | GSSCNSLPFYVRDRFNTPCV | inactive
32 | GYLLAERDLNIATARGSLLR | -0.514 ± 0.65
33 | IFGCRLLYCS | 0.402 ± 1.4
34 | MPRLTDRDKLCDFVNLQFIF | 6.7 ± 0.073
35 | MKRVWSYIAGKNARNLKGRL | 0.174 ± 0.41
36 | GFNLAW | -0.547 ± 0.56
37 | LGTKL | 0.601 ± 0.63
38 | SCNHKNSRSHLALQS | 1.6 ± 0.44
39 | KCGGKRCWLSFCLDAD | 1.48 ± 0.33
40 | VSEFGFIVF | -0.315 ± 0.76
41 | LSAKLQFCITIEYALRVTKC | -0.106 ± 1.7
42 | PCTGLRHGLHEFMSRYPDRD | 0.215 ± 0.97
43 | YTRFVKGYTRNRFSRDTSAV | -0.084 ± 0.28
44 | TATDPLLSYGAHL | -0.354 ± 0.31

Row | Substance | amyloid nucleation score
45 | CFYFMECLV | -0.254 ± 0.59
46 | CCLVLSFLCNMEDSRNGG | 6.363 ± 0.056
47 | YWGPKDAMGMSFIVSWDGPP | 0.367 ± 0.31
48 | HPGMTSAASVCWFHGRVLTL | 0.494 ± 0.51
49 | YFAHGSWRLSCFLVYWLMRP | inactive
50 | HSAGVVDALRCYNFYV | -0.102 ± 0.39
51 | SCGLINWLRVYHLLSLNSGS | 2.31 ± 0.1
52 | YIDVGICYGGDERVLFLV | 1.2 ± 0.61
53 | KSMKGRSLRLRLKRDPRKVA | -0.051 ± 0.4
54 | KSIRVNTMHRC | 2.19 ± 0.3
55 | SVDGL | -0.763 ± 0.2
56 | ARAGWRSYYRGHLCSESANE | 0.273 ± 0.65
57 | KYWVGWAVSFCVWYLTRLWE | 0.337 ± 0.67
58 | CVFYISINCYFIWVRLDWVY | inactive
59 | GNAVYMNYFNVLDWNWSL | 4.966 ± 0.048
60 | AFSYRGGVMRSSFEMLTYVS | -0.906 ± 0.61
61 | IMPDNDWKSCILIFSRSILF | 2.59 ± 0.15
62 | VLMFIINSCKR | 7.028 ± 0.052
63 | ICVSSGSVIIIVTYFAKCPA | 0.484 ± 0.24
64 | EFGNVIRVCNLI | -0.289 ± 0.34
65 | YGFKLGMFTGSIAMYAGHLI | -0.198 ± 0.31
66 | VGFRVDFNIDLQLFLYRNEK | 0.334 ± 0.81

Row | Substance | amyloid nucleation score
67 | RPLALRVQDSPKSFGQSP | 0.145 ± 0.7
68 | IQYDSFNVRFDIATAIDYFA | -0.12 ± 0.67
69 | VRLFLCFARSMDVRYFILVG | 0.459 ± 0.57
70 | INDESFWDCIVPNRMKGFSG | 0.325 ± 0.42
71 | SHTLHDAIYGVDVQPFDTRV | 0.102 ± 0.66
72 | VELQYDLYCFSSFADPLS | 1.29 ± 0.6
73 | GGLDSNRQLVKFYTSWNYNC | -0.057 ± 0.39
74 | ADDYCQPGKIGVNNGPHRKR | -0.657 ± 1.7
75 | ACQLLMCLCFFETKGLYLDG | 7.603 ± 0.053
76 | GYGYFSIVTTRMIVGVHVKC | -0.509 ± 0.57
77 | EIAYVLICRHLLECIRA | inactive
78 | GMYRSVCDKVYRGCTIEVVV | 1.55 ± 0.54
79 | SIVRTDDIARLSLMLGRRSV | -0.724 ± 0.56
80 | IYSRVGWETSWDWSVSVWGF | 0.031 ± 0.37
81 | RYFVYLSVFDYFINHLDIRW | -0.79 ± 0.42
82 | IRGVKSYLSLITLFSKTHLV | -0.833 ± 0.39
83 | QRHSLNDNCRCLRYPQHSPN | 1.07 ± 0.73
84 | ASGLMLFIMPFRWGWNSVFT | 0.683 ± 0.42
85 | VAQLRIKVCKDPGTWLQVHH | 1.48 ± 0.74
